We go through three molecules from paper PMC5321513 (Structure (London, England : 1993), 2017).

In general, Kd refers to the constant that tells how readily two partners part at equilibrium.

For one experiment, the target named is T1, 14-3-3σ Clu3 (1-231) (human, UniProt P31947 1-231, 75EEK77 → AAA).
T1 sequence: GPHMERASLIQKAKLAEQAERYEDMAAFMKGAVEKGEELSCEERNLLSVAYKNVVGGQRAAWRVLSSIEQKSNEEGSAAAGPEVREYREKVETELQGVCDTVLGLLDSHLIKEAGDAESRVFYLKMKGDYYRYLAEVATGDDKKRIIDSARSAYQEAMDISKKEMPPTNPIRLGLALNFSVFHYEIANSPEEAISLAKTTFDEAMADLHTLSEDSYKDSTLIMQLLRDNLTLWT
Description: crystal structure.

The target in another experiment is T2, 14-3-3σ Clu1 (1-231) (human, UniProt P31947 1-231, 159KKE161 → AAA).
T2 sequence: T1 sequence with A78E, A79E, A80K, K162A, K163A, E164A
Description: crystal structure.

Experiment [1] deals with T3, full-length human 14-3-3ζ (human, UniProt P63104 1-245).
T3 sequence (looked up): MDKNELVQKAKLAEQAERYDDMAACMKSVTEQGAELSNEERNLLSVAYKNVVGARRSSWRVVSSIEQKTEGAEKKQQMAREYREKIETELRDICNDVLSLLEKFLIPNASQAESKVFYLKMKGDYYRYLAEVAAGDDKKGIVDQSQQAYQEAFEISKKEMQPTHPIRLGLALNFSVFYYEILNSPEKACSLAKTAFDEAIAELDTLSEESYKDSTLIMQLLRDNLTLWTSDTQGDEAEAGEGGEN
Description: SEC. For orientation: SEC sorts molecules by how far they enter the pores of the column.

The next experiment concerns the target T4, 14-3-3τ (1-230) (human, UniProt P27348 1-230).
T4 sequence: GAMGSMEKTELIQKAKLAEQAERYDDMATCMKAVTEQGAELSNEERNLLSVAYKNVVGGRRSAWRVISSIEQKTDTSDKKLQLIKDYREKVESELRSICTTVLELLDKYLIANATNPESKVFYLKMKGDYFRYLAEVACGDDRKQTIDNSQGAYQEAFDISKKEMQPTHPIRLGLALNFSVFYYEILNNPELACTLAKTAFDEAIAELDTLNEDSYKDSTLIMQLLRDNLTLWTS
Description: SEC.

The next experiment addresses T5, 14-3-3ε (1-232) (human, UniProt P62258 1-232).
T5 sequence: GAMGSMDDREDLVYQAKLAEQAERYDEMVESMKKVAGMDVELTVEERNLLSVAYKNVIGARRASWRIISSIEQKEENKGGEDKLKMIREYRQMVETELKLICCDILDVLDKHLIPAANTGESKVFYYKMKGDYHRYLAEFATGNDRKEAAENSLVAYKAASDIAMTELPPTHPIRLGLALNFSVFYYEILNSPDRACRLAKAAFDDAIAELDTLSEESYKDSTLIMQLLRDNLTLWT
Description: SEC.

Another experiment concerns the target T6, 14-3-3β (1-232) (human, UniProt P31946 1-232).
T6 sequence: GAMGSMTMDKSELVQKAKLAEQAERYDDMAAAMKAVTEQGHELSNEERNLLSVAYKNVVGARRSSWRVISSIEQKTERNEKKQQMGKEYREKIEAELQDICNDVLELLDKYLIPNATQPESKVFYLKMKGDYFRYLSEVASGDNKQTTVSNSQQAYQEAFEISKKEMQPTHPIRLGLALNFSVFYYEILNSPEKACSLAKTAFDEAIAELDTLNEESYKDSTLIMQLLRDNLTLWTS
Description: SEC.

The target in the next experiment is T7, 14-3-3η (1-235) (human, UniProt Q04917 1-235).
T7 sequence: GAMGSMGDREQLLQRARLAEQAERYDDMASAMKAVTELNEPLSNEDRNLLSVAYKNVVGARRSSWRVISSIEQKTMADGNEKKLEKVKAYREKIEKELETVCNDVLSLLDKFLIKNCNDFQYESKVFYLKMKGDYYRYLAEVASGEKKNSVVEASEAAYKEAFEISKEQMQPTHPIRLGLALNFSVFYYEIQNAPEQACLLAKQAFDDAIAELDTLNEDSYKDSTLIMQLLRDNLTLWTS
Description: SEC.

Experiment [2] addresses T8, full-length human 14-3-3γ (human, UniProt P61981 1-247).
T8 sequence (looked up): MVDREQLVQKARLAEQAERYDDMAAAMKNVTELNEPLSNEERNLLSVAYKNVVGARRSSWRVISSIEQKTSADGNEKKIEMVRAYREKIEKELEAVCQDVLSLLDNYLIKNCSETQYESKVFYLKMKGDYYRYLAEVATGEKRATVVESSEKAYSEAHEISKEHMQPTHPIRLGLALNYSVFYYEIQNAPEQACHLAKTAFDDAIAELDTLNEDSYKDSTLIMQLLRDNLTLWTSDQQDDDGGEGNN
Description: SEC.

Experiment [3] addresses T9, 14-3-3σ WT (1-231) (human, UniProt P31947 1-231).
T9 sequence: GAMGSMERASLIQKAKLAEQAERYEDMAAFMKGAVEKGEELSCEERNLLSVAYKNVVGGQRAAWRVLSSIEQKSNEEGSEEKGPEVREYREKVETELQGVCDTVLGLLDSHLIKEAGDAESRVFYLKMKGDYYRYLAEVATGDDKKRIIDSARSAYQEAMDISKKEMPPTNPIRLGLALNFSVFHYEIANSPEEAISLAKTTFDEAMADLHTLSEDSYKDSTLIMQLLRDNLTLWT
Description: SEC.

The target in experiment [4] is T9, 14-3-3σ WT (1-231). Description: other fluorescence titration.

Positions count from the first letter of the chain named. [ ]: non-standard residue; d: D form. pS = N[C@@H](COP(=O)(O)O)C(=O)O

B1: pHSPB6(13-20) phosphopeptide (peptide, UniProt O14558 13-20, looked up)
peptide: H-RRA[pS]APLP-OH
SMILES: CC(C)C[C@H](NC(=O)[C@@H]1CCCN1C(=O)[C@H](C)NC(=O)[C@H](COP(=O)(O)O)NC(=O)[C@H](C)NC(=O)[C@H](CCCNC(=N)N)NC(=O)[C@@H](N)CCCNC(=N)N)C(=O)N1CCC[C@H]1C(=O)O
B1: the binding result with 14-3-3σ Clu3 (1-231) is “binds”.

B2: pHSPB6 (1-149) (domain or fragment, human, UniProt O14558 1-149, looked up)
chain: MEIPVPVQPSWLRRASAPLPGLSAPGRLFDQRFGEGLLEAELAALCPTTLAPYYLRAPSVALPVAQVPTDPGHFSVLLDVKHFSPEEIAVKVVGEHVEVHARHEERPDEHGFVAREFHRRYRLPPGVDPAAVTSALSPEGVLSIQAAPA
modifications: phosphoserine at 16
Consider B2, for which the binding result (with 14-3-3σ Clu1 (1-231); in experiment [1]; with 14-3-3τ (1-230); in the experiment with 14-3-3ε (1-232); with 14-3-3β (1-232); in the experiment with 14-3-3η (1-235)) was “binds” each time. The binding result (in experiment [2]; with 14-3-3σ WT (1-231) [3]) was “binds” in each case.

B3: AEDANS-labeled phosphorylated full-length HSPB6 (natural protein, human, UniProt O14558 1-160, looked up)
chain: MEIPVPVQPSWLRRASAPLPGLSAPGRLFDQRFGEGLLEAELAALCPTTLAPYYLRAPSVALPVAQVPTDPGHFSVLLDVKHFSPEEIAVKVVGEHVEVHARHEERPDEHGFVAREFHRRYRLPPGVDPAAVTSALSPEGVLSIQAAPASAQAPPPAAAK
modifications: phosphoserine at 16; 1,5-I-AEDANS moiety on Cys46 (extent of labeling 90%)
Molecule B3 returned a Kd in the experiment with 14-3-3σ WT (1-231) [4] of 560 ± 200 nM.
